Here are results for 3 molecules from patent US20240425603A1 (Janssen / Centocor, published 2024).

Experiment [1] has as its target T1, Recombinant human VEGFR1-Fc (R&D Systems) (human, UniProt P17948 27-687, limits assumed).
T1 construct: bought; not shown: Fc part of the bought fusion, not described
Briefly: biochemical ligand blocking assay; ligand and receptor form not given. In a few lines: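 Antibodies were tested in a biochemical electro-chemiluminescence ligand blocking assay. Recombinant VEGFR1-Fc was captured on Protein A/G-coated MSD plates and pre-incubated for 30 minutes with half-log antibody dilutions. Biotinylated ligand was then added and detected with Sulfo-tagged streptavidin on an MSD imager. IC50 was calculated from the readings.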

Experiment [2] has as its target T2, mouse VEGFR1 (soluble antigen of the KinExA and SPR affinity assays) (mouse, UniProt P35969 23-759, limits assumed).
T2 sequence (looked up): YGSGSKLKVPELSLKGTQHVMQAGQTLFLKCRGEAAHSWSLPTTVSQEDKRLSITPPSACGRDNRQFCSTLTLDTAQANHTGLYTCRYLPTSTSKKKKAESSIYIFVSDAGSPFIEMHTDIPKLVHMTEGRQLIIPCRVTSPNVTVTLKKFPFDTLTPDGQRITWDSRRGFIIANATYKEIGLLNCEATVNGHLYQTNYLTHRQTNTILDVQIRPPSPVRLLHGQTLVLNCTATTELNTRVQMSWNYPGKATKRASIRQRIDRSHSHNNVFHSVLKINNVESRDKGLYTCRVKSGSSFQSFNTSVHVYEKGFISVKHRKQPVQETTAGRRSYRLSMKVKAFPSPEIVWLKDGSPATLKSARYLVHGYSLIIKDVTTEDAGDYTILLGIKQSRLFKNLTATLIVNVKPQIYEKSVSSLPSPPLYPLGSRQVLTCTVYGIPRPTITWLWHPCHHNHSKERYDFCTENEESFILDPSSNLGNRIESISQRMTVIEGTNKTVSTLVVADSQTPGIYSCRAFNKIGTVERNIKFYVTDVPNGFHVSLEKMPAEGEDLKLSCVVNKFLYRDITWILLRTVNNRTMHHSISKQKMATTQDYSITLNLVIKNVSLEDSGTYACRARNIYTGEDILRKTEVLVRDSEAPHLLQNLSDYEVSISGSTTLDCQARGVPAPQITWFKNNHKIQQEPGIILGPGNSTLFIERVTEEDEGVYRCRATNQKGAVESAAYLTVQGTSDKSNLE
Briefly: KinExA, solution. The protocol:
Kinetic exclusion assay (KEA; KinExA) was used to analyze the binding of anti-VEGFR1 antibodies to human, mouse and cynomolgus monkeys VEGFR1. KEA is a fluorescence-based solution method, and it is described in detail in the literature (Darling and Brault, 2004). To measure the affinity of an interaction, a series of solutions with a fixed concentration of one interactant (A) and varying concentrations of another interactant (B) are prepared and allowed to reach equilibrium. After equilibration, the concentration of free A is determined by flowing the equilibrated mixture through a column packed with beads modified with reactant B. Free A binds to the beads and is then detected using a fluorescently labeled polyclonal antibody.
Briefly, fixed concentrations (300 pM, 60 pM, 12 pM, 2.4 or 0.5 pM) of Ab were used to prepare a serial dilution of the antigen (2 nM to 0.52 pM, or 800 pM to 5.37 fM). The complex titrations were incubated at RT to reach binding equilibrium for at least 2 days. After incubation, the samples were run on the KinExA3200 or KinExA4000 instrument to assess free antibody in the reaction. During these studies some of the data were rejected because the experiments failed or failed the acceptance criteria. For mouse VEGFR1 the 60 and 300 pM concentrations were rejected due to high titrant related NSB. The dissociation equilibrium constant, (KD), was determined using the n-curve analysis feature of the KinExA Pro software. This program uses nonlinear least-square regression analysis of the globally fitted data to a 1:1 binding model. (CI=confidence interval).

T1 sequence (P17948 27-687 limits assumed): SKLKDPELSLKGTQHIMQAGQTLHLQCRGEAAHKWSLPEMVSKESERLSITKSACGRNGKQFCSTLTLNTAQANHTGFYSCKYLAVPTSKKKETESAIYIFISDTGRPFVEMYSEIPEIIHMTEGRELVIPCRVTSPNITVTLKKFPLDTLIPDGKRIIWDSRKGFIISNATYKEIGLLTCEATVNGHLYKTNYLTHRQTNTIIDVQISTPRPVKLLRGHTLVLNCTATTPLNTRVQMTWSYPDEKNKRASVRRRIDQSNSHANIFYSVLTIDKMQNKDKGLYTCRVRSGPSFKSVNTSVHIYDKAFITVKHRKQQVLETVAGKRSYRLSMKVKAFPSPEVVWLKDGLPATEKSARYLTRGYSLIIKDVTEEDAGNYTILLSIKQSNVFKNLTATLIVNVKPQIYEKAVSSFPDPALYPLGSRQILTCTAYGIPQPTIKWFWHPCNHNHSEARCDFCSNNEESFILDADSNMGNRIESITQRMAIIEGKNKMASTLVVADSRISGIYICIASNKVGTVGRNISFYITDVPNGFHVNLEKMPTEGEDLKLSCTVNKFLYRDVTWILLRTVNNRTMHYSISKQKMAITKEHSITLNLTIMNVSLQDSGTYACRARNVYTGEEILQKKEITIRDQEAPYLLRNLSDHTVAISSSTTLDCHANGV

B1: VGFB54 (antibody, human IgG1, lambda, L234A L235A, V domains shown)
VH: EVQLLESGGGSVQPGGSLRLSCTASGFNFEDYGMNWVRQAPGKGLDWVSSINRNGDISTYHVDSVKGRFTISRDNSKNTLYLQMNSLRAEDTAIYYCTKNHDYHGMDVWGQGTTVTVSS
VL: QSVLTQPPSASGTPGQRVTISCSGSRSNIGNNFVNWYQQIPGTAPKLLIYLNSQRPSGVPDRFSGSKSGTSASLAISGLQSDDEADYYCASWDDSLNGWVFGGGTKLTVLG
notes: human IgG1 (L234A/L235A/D265S), lambda, 2H:2L; from OmniChicken
For B1, the IC50 – broadly, the concentration that inhibits the measured activity by half – in experiment [1] was 89.4 pM.

B2: VGFB78 (antibody, human IgG1, lambda, L234A L235A, V domains shown)
VH: EVQLLESGGGLVQPGGSLRLSCAASSFTFYNYDMTWVRQAPGKGLEWVAGIGTSGTDMYYADSVKGRFTISRDNSKNTLYLQMNSLRAEDTAIYYCAKDYYYYGMDVWGLGTTVTVSS
VL: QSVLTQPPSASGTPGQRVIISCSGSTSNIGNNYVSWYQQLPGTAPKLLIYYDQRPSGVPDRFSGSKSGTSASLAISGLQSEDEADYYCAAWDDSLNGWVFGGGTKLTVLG
notes: human IgG1 (L234A/L235A/D265S)
Regarding B2, the Kd (commonly the concentration at which binding is half-saturated) in experiment [2] was 3.85 pM.

B3: VGFB82 (antibody, human IgG1, lambda, L234A L235A, V domains shown)
VH: EVQLLESGGGLVQPGGSLRLSCEASGFDFSTYAMNWVRQAPGKGLEWVATINSEGTITSHAPAVKGRFTISRDNSKNTAYVQMNSLRAEDSAVYYCSSTTGTTHGMDVWGRGTTVTVSS
VL: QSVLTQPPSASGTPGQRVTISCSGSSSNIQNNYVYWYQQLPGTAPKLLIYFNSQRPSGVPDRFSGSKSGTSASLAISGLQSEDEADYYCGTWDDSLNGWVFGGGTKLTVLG
notes: as for B2
For the molecule B3, in experiment [2], the Kd was found to be 23 pM.
